# Measurements: paper PMC9036094, “Antigen-derived peptides engage the ER stress sensor IRE1α to curb dendritic cell cross-presentation” (The Journal of Cell Biology, 2022)
# Tested on: IRE1α in mouse embryonic fibroblasts (MEFs)
# Experiment: IRE1α activation in MEFs (immunoblot)
# Type: cell-based
# Conditions: ovalbumin, 4 h
# Procedure: Figure S1. Antigen pulsing of BMDCs activates IRE1α. (A) BMDCs were treated with MG132 (5 μM) or ovalbumin (500 μg/ml) for indicated time points and analyzed by IB. (B) BMDCs were pulsed with ovalbumin (500 μg/ml) and G9668 (3 μM) for indicated time periods and analyzed by IB. (C) Molecular structure, potency, and kinase selectivity of G9668. (D) Schematic representation of G9668 interaction with 220 kinases at 1 μM. Size and color of circles represent interaction strength. Analysis was conducted by KinomeScan. (E) BMDCs were pulsed for 4 h with APC-tagged ovalbumin or soluble CD4-Fc protein (500 μg/ml) with amiloride (10 μM); uptake of protein was assayed by flow cytometry (n = 3). (F) WT or MyD88 KO Flt3L-derived BMDCs were pulsed with ovalbumin (500 μg/ml) or soluble CD4-Fc protein (500 μg/ml), or treated with LPS (10 μg/ml) for 4 h and analyzed by IB. (G) MEFs and BMDCs were pulsed with ovalbumin or treated with Tg (100 nM) for 4 h and analyzed by IB. Images in A, B, F, and G represent at least two similar experiments, and molecular weights represent kD; E bar graphs represent mean ± SD from three independent biological repeats. Analysis for E was performed using unpaired, two-tailed t test; *, P ≤ 0.05; **, P ≤ 0.01. Source data are available for this figure: SourceData FS1. […]
molecule,measurement,value
ovalbumin: classical protein antigen ovalbumin (Sigma-Aldrich) (protein) MGSIGAASMEFCFDVFKELKVHHANENIFYCPIAIMSALAMVYLGAKDSTRTQINKVVRFDKLPGFGDSIEAQCGTSVNVHSSLRDILNQITKPNDVYSFSLASRLYAEERYPILPEYLQCVKELYRGGLEPINFQTAADQARELINSWVESQTNGIIRNVLQPSSVDSQTAMVLVNAIVFKGLWEKAFKDEDTQAMPFRVTEQESKPVQMMYQIGLFRVASMASEKMKILELPFASGTMSMLVLLPDEVSGLEQLESIINFEKLTEWTSSNVMEERKIKVYLPRMKMEEKYNLTSVLMAMGITDVFSSSANLSGISSAESLKISQAVHAAHAEINEAGREVVGSAEAGVDAASVSEEFRADHPFLFCIKHIATNAVLFFGRCVSP,"IRE1α activation, MEFs",did not display detectable IRE1α activation
